We go through three molecules from patent US10711248B2, “Device and method for standardizing myoblast differentiation into myotubes” (Cytoo, priority 2013, dated 2020).

The subject of this test is acetylcholine receptors (AChR) clustering in myotubes derived from human primary cells. The test is described as follows: Acetylcholine receptor clustering in primary human myotubes cultured on micropatterns (TMR-Bungarotoxin probe). Format: cell-based. Conditions: FIG. 8A/8B. As for the experimental part:
FIG. 8B is a quantification of the regulation of cluster formation through agrin and Wnt signaling;
C2C12 mouse or primary human myoblasts (HSMM, Lonza) were cultured on fibronectin coated micropatterns within growth medium (DMEM, 20% FBS, 0.5% P/S, or Lonza SkGM™-2 cell culture Kit respectively) during 24 hours. Then both cell types were cultured within differentiation medium (DMEM/F12, 2% Horse Serum, 0.5% P/S) during 5 to 11 days for HSMM and C2C12 respectively. Differentiation medium were changed every 2 days. Cells were fixed and an immunostaining was realized against myosin heavy chain (in green in a color image—in light grey in the appended black&white figures), actin (in red in a color image—in medium grey in the appended black&white figures) and nuclei (in blue in a color image—in dark grey in the appended black&white figures). Images were acquired using an epifluorescence microscope (DMI6000, Leica).

In the case of “agrin: treatment inducing acetylcholine receptor clustering in myotubes [reference compound]”, the “Effect on AChR clustering / cluster formation” value is “large clustering”.

B1: Wnt3a: Wnt molecule known to inhibit AChR clustering in mice (protein, UniProt P56704 19-352, looked up)
Protein Wnt-3a: SYPIWWSLAVGPQYSSLGSQPILCASIPGLVPKQLRFCRNYVEIMPSVAEGIKIGIQECQHQFRGRRWNCTTVHDSLAIFGPVLDKATRESAFVHAIASAGVAFAVTRSCAEGTAAICGCSSRHQGSPGKGWKWGGCSEDIEFGGMVSREFADARENRPDARSAMNRHNNEAGRQAIASHMHLKCKCHGLSGSCEVKTCWWSQPDFRAIGDFLKDKYDSASEMVVEKHRESRGWVETLRPRYTYFKVPTERDLVYYEASPNFCEPNPETGSFGTRDRTCNVSSHGIDGCDLLCCGRGHNARAERRREKCRCVFHWCCYVSCQECTRVYDVHTCK
Regarding B1, the “Effect on AChR clustering / cluster formation” value is “inhibit”.

B2: Wnt4: Wnt molecule known to stimulate AChR clustering in mice (protein, UniProt P56705 23-351, looked up)
Protein Wnt-4: SNWLYLAKLSSVGSISEEETCEKLKGLIQRQVQMCKRNLEVMDSVRRGAQLAIEECQYQFRNRRWNCSTLDSLPVFGKVVTQGTREAAFVYAISSAGVAFAVTRACSSGELEKCGCDRTVHGVSPQGFQWSGCSDNIAYGVAFSQSFVDVRERSKGASSSRALMNLHNNEAGRKAILTHMRVECKCHGVSGSCEVKTCWRAVPPFRQVGHALKEKFDGATEVEPRRVGSSRALVPRNAQFKPHTDEDLVYLEPSPDFCEQDMRSGVLGTRGRTCNKTSKAIDGCELLCCGRGFHTAQVELAERCSCKFHWCCFVKCRQCQRLVELHTCR
Turning to B2, the “Effect on AChR clustering / cluster formation” value is listed as “stimulate”.
